In article PMC11310207 (Scientific Reports, 2024):
Square brackets hold non-standard residues; d marks the D form. Ends that are not written are not given here. * marks the point of attachment. Dnp = O=[N+]([O-])c1ccc(*)c([N+](=O)[O-])c1; Mca = COc1ccc2c(CC(=O)*)cc(=O)oc2c1

Key:
[1] = target: human neurolysin (hNln), Ser38-Pro704, N-terminal 6xHis-tag, used in the activity assays (human, UniProt Q9BYT8 38-704); experiment: enzyme inhibition
[2] = target: rNln (Met37–Ser704), C-terminal 6xHis-tag, catalytically active (UniProt P42676 37-704); experiment: fluorescence polarisation

| Binder | binding result [1] | further results |
| --- | --- | --- |
| YGGFLRRIRPK [dynorphin A (1–11)] | binds |  |
| YGGFLRR [dynorphin A (1–7)] | binds |  |
| Mca-PLGP[dK](Dnp)-OH [Mca–Pro–Leu–Gly–Pro–D–Lys(DNP)–OH, quenched fluorogenic substrate of Nln] | binds |  |
| YGGFLRRIRP [dynorphin A (1–10)] | binds |  |
| {FAM}-GGFLRRIRPKLK [FAM-GGFLRRIRPKLK, N-terminally FAM-labeled Dyn A (2–13)] |  | Kd [2]: 1470 nM |
| YGGFLRRIRPKL [dynorphin A (1–12)] |  | Ki [1]: 900 nM |
